Biological target: GFP-RTN1 (reticulon RTN1 fused to GFP; FRET donor) (Arabidopsis)
Experiment: FRET or BRET; FRET-FLIM (two-photon microscope): donor GFP-RTN1 and RFP-tagged acceptor coinfiltrated into N. tabacum leaf epidermal cells, measured after 48 h in low-mobility ER continuous with the nuclear envelope; donor lifetime compared with GFP-RTN1 alone

reduction of the donor (GFP-RTN1) fluorescence lifetime	Molecule
0.2 ns	AtLNP2-RFP (Arabidopsis Lunapark 2, splice variant AtLNP2.1, fused to RFP; FRET acceptor) (natural protein)
0.2 ns	AtLNP1-RFP (Arabidopsis Lunapark 1 fused to RFP; FRET acceptor) (natural protein) MAVGEKEHEGTVVESGGEKNDSAVVLSASGEKKTTKRKGLFSRLWNAIFRVRGDDFEKRLKNISKEEATVRNRMKRRSITRRNFIRNLIAFSVFFEVIAVSYAIMTTRDEDLDWKLRSFRILPMFLLPAVAFLLYSSLVGFWRMCDRRDQHTLEKLQAEMLGKINELKERTNYYITQQLIQRYDPDPAAKAAAATVLASKLGAESGLKVFVGDESQLEPTAGKNNAKHSGGLRNRKQTNTRGNSAETTPIHHSDNESNHSGTSERITGTEQNQQMVFEHYNPQEYAAHDGSWISRIAALLVGEDPSQSYALICGNCRMHNGLARKEDFPYITYYCPHCRALNKPKHSEEHSLIAPADTLPKVSLKPMESEVINSSSSTSERGNSPIPLLHTPEIVEEVPETAENETPN
